Experimental data from patent US20220135701A1 (Genentech, published 2022).

How the values were obtained:
[1] = molecular target: T1, human MerTK on human macrophages (human, UniProt Q12866 21-999); assay: cell-based or functional assay
T1 sequence: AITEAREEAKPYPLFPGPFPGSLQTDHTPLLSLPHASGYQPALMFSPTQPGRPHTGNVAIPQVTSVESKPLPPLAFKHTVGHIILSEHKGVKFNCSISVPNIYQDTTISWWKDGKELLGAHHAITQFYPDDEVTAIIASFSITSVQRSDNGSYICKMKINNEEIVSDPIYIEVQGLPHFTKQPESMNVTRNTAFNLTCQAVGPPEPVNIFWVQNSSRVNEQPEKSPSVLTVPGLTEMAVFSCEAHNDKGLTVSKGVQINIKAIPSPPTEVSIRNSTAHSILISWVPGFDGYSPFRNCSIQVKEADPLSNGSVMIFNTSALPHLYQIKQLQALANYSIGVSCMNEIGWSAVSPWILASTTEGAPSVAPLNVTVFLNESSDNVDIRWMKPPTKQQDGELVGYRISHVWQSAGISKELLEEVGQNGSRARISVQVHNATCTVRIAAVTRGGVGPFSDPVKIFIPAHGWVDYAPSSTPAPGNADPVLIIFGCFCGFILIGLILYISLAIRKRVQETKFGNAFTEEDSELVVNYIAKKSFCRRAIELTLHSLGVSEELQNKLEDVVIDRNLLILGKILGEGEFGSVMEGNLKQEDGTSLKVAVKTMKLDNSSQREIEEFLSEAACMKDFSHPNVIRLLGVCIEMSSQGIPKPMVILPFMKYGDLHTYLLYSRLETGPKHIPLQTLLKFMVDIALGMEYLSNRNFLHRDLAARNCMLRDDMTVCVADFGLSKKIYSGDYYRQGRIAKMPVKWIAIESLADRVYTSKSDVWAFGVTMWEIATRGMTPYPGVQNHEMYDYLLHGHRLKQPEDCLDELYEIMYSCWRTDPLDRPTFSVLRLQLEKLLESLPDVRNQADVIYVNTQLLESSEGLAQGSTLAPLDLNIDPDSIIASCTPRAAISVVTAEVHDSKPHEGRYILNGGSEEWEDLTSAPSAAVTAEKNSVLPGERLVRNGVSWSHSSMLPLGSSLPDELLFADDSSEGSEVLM

rat MerTK = molecular target: T2, rat MerTK (rat, UniProt P57097 23-496, limits assumed); assay: SPR BIAcore T200, Ab captured, 37C
T2 construct: Soluble analyte in SPR
T2 sequence (looked up): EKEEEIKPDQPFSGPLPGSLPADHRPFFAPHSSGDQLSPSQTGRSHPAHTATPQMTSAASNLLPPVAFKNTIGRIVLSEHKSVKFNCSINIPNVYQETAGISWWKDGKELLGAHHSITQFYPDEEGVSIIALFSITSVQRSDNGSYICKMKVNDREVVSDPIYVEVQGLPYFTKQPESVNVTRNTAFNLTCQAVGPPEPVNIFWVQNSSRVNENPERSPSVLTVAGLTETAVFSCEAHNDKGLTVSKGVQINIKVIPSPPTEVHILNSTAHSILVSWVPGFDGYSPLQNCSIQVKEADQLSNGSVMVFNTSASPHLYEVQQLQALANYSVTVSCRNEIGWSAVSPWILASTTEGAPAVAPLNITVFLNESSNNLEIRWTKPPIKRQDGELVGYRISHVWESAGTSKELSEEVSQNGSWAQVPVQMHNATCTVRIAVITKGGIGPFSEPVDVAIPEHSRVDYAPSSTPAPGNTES
Experimental: Each rabbit and humanized antibody was subjected to a binding assay to determine its affinity to MerTK derived from various species.
All binding affinity determinations were obtained using Surface Plasmon Resonance (SPR) measurements from a BIAcore™-T200 instrument. Briefly, each rabbit or humanized antibody was captured to achieve approximately 100 RU (Response Units). Then, 3-fold serial dilutions of MerTK from various species (0.4 nM to 100 nM) diluted in HBS-EP buffer (0.01M HEPES pH 7.4, 0.15M NaCl, 3 mM EDTA and 0.05% v/v surfactant P20) was injected into the BIAcore™-T200 instrument at 25° C. or 37° C. with a flow rate of 30 μl/min. Association rates (kₒₙ) and dissociation rates (koff) were calculated using a simple one-to-one Langmuir binding model (BIAcore T200 evaluation software version 2.0). The equilibrium dissociation constant (KD) was calculated as the ratio koff/kₒₙ.

[2] = molecular target: T3, mouse MerTK on mouse macrophages (mouse, UniProt Q60805 19-994); assay: cell-based or functional assay
T3 sequence (looked up): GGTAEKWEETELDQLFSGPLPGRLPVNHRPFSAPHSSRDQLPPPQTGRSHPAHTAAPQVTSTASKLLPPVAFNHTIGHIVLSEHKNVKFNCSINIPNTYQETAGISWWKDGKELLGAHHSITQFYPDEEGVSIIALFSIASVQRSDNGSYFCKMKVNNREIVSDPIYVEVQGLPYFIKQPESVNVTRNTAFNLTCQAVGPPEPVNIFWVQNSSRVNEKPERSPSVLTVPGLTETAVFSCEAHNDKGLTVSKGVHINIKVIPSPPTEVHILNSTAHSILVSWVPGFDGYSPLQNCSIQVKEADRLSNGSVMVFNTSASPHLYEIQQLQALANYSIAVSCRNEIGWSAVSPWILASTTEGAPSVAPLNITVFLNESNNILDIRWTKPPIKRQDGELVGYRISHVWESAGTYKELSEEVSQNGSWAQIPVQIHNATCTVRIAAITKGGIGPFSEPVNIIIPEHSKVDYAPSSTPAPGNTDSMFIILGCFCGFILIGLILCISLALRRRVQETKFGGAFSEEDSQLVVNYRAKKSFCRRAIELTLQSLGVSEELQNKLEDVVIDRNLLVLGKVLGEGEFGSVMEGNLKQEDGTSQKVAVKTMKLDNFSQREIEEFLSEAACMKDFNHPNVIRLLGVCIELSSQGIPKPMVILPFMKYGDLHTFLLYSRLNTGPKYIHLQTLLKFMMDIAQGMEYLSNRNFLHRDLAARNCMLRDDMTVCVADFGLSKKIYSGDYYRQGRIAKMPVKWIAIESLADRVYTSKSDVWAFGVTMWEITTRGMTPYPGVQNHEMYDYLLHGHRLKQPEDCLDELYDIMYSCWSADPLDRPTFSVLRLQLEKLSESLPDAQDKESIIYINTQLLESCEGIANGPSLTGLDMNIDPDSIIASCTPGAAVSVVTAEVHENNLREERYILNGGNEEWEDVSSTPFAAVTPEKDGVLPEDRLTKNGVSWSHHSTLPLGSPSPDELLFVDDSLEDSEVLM

B1: h10F7.v16 (antibody, V domains shown)
VH: EVQLVESGGGLVQPGGSLRLSCAVSGFSLSGYAMSWVRQAPGKGLEYIGVISSSGSSYYPSWAKGRFTISKDNSKNTLYLQMGSLRAEDMAVYYCARVQFYVGYAVYGYGIIDRLDLWGQGTLVTVSS
VL: DIVLTQSPDSLAVSLGERATINCQSSKSVYNNNWLSWYQQKPGQPPKLLIYRASTLESGVPDRFSGSGSGTDFTLTISSLQAEDVAVYFCAGGYSSSSSANAFGGGTKVEIK
notes: Humanized, human IgG1; also called 10F7 Fully Humanized; 10F7 Humanized polished mAb
With B1 the “IC50 (nM), efferocytosis by human macrophages, Average (3 Donors)” value [1] was 0.41 nM, the “IC50 (nM), efferocytosis by human macrophages, Donor A” value [1] was 0.42 nM and the “IC50 (nM), efferocytosis by human macrophages, Donor B” value [1] was 0.53 nM. For the same binder, the “IC50 (nM), efferocytosis by human macrophages, Donor C” value [1] was 0.27 nM, the “Max Inhibition (%), efferocytosis by human macrophages, Average (3 Donors)” value [1] was 69% and the “Max Inhibition (%), efferocytosis by human macrophages, Donor A” value [1] was 76%. The “Max Inhibition (%), efferocytosis by human macrophages, Donor B” value [1] was 73%, the “Max Inhibition (%), efferocytosis by human macrophages, Donor C” value [1] was 60% and the Kd (rat MerTK) was 3200 pM. The “IC50 (nM), efferocytosis by mouse macrophages, Average” value [2] was 0.91 nM.
